Results on one substance are retold here after patent US20130064825A1.

Test [1] has as its target cynomolgus monkey PCSK9, V5-6xHIS tagged (cynomolgus monkey). The test can be described thus: KinExA solution equilibrium, PCSK9-coated beads. (In KinExA the mixture passes briefly over coated beads that capture the unbound partner.)
Test [2] shares this target. Nature of the test: SPR (Biacore 2000), antibody amine-coupled on CM5 chip, PCSK9 injected, pH 7.4. A general note: In SPR one partner is held on a chip, and binding of the other changes the refractive index at the surface.

For the substance 31H4, anti-PCSK9 huIgG4 (antibody), the Kd stood at 2 pM in test [1] and 190 pM in test [2].

One may read the Kd as a measure of binding affinity in units of concentration.
